# The DeepSol protein solubility set
# Assay: soluble on expression in E. coli; label from the status in PepcDB or PDB records
row,Sequence,soluble on expression in E. coli
1,AQSVPWGISRVQAPAAHNRGLTGSGVKVAVLDTGISTHPDLNIRGGASFVPGEPSTQDGNGHGTHVAGTIAALNNSIGVLGVAPNAELYAVKVLGASGSGSVSSIAQGLEWAGNNGMHVANLSLGSPSPSATLEQAVNSATSRGVLVVAASGNSGAGSISYPARYANAMAVGATDQNNNRASFSQYGAGLDIVAPGVNVQSTYPGSTYASLNGTSMATPHVAGAAALVKQKNPSWSNVQIRNHLKNTATSLGSTNLYGSGLVNAEAATR,soluble
2,ARGVKGHVRVLANTTAMTEFMPAVLARYLAAHPDVNVELRERLSYLVVRAVADGSADIGVVAGCAPDQKLQFIPYRKDRLVVVTPAGHRLAAEESVAFADTLADDYVGLSEWSAIHPFLVQAAASLGRTFKFRVEVGNFEAVCRMIESG,not soluble
3,ARQENPCGPCSERRKHLFVQDPQTCKCSCKNTDSRCKARQLELNERTCRCDKPRR,soluble
4,ARRLYVGNIPFGITEEAMMDFFNAQMRLGGLTQAPGNPVLAVQINQDKNFAFLEFRSVDETTQAMAFDGIIFQGQSLKIRRPHDYQPLPG,soluble
5,ARVDQTPQTITKETGESLTINCVLRDSNCALSSTYWYRKKSGSTNEESISKGGRYVETVNSGSKSFSLRINDLTVEDSGTYRCKPESRYGSYDAECAALNDQYGGGTVVTVNAAAHHHHHH,soluble
6,ARVNAQTGAPDILTSLDEKSVSYDTVMDKYWLSQYVIARETYDWYTLQKDYETVGMLSSPSEGQSYASQFQGDKALDKQYGSNVRTSVTIVSIVPNGKGIGTVRFAKTTKRTNETGDGETTHWIATIGYQYVNPSLMSESARLTNPLGFNVTSYRVDPEMGVVQ,soluble
7,ASGSSFASTRKLLNRHSLHTVCRSAMCPNLHECWSKGTATFLLLGNVCTRSCRFCAVGTECRPAMPDPEEPSKIAEAVKTMKLRHAVLTSVNRDDLADGGATHWVETIRAIREVNPGVSLECLIPDFSGNEQSLDLVMQELPEVLNHNIETVPSRYAAVRPQALYERSLAVIERAKRQFRLATKSGMMVGMGETEEELEASLHDLRGHGCDMVTIGQYLQPTAAHLPVSRYVTPEEFERYREIALDAGFRHVQSGPFVRSSYHAEAFEPVEK,not soluble
8,ASLFPPGLHAIYGECRRLYPDQPNPLQVTAIVKYWLGGPDPLDYVSMYRNVGSPSANIPEHWHYISFGLSDLYGDNRVHEFTGTDGPSGFGFELTFRLKRETGESAPPTWPAELMQGLARYVFQSENTFCSGDHVSWHSPLDNSESRIQHMLLTEDPQMQPVQTPFGVVTFLQIVGVCTEELHSAQQWNGQGILELLRTVPIAGGPWLITDMRRGETIFEIDPHLQERVDKGIETD,soluble
9,ASMTGGQQMGRGSGSEFMENETHYAEAVIDNGAFGTRTIRFETGRLARQAAGSAVAYLDDDTMVLSATTASKNPKDQLDFFPLTVDVEERMYAAGKIPGSFFRREGRPSEDAILTCRLIDRPLRPSFKKGLRNEIQVVATIMALNPDHLYDVVAINAASASTQLAGLPFSGPIGGVRVALIRGQWVAFPTHTELEDAVFDMVVAGRVLEDGDVAIMMVEAEATEKTIQLVKDGAEAPTEEVVAAGLDAAKPFIKVLCKAQADLAAKAAKPTGEFPVFLDYQDDVLEALSAAVRPELSAALTIAGKQDREAELDRVKALAAEKLLPEFEGREKEISAAYRALTKSLVRERVIAEKKRIDGRGVTDIRTLAAEVEAIPRVHGSALFERGETQILGVTTLNMLRMEQQLDTLSPVTRKRYMHNYNFPPYSVGETGRVGSPKRREIGHGALAERAIVPVLPTREEFPYAIRQVSEALGSNGSTSMGSVCASTMSLLNAGVPLKAPVAGIAMGLISQEINGETHYVALTDILGAEDAFGDMDFKVAGTKEFVTALQLDTKLDGIPASVLAAALKQARDARLHILDVMMEAIDTPDEMSPNAPRIITVKIPVDKIGEVIGPKRQMINQIQEDTGAEITIEDDGTIYIGAADGPAAEAARATINGIANPTSPEVGERILGSVVKTTTFGAFVSLLPGKDGLLHISQIRKLAGGKRVENVEDVLGVGQKVQVEIAEIDSRGKLSLIPVIEGEEAASDEKKDDAEQ,soluble
10,ASPNSPKDNTWIQAASLTWLMDMSSLLYQLISTRIPSFASPNGLHMREQTIDSNTGQIQIDNEHRLLRWDRRPPNDIFLNGFIPRVTNQNLSPVEDTHLLNYLRTNSPSIFVSTTRARYNNLGLEITPWTPHSANNNIIYRYEIFAPGGIDINASFSRNHNPFPNEDEITFPGGIRPEFIRSTYEYHNGEIVRIWINPNFINPSTLNDVSGPSNISKVFWHENHSEGNNMDSKGFILDLDYNQDFDMFAPNGEIPNNNLLNNNSLNVIQNSEYQIKNKKDRNIVVTLDSDYGGSPVESYKNFGFENQKWNIKYDSKKNAYKIYNRETPTLLLSWNSNSSNGEQVIRGYTESGSNNQYWTIEKNVNGFYKFRNLSDPSKILDLKDGNTLNKTPLVVSSENSSSSQEWLIEKTNYQTVKDGTYQVSSKLNENKVIEQISTNKVHIFSNSDKENQVWNLIYNPILKAYKIKSLKYPNYSLAWDSNNTRTIVAATGDYNDQYWLIERNEDNTYIIRNYENRKIVLDLSNGSTTDGNGLLGFEFHGGINQRWIIKPFSFNSIQDGIYQFMTVINQDLIADLTTNNYTIATKTNNYSSNQKWTVTYNDKKRAYKIRNLQHAHLSLAWDSNHSDKIFGATGDYDDQYWIPILQTDGSFIFRNYKNPNKIFGTNGQPINDIPLKAQDVTGQNNQKWYLRHLNSSNNFTGYFNISSKKNFNKIITMNSNKTQAVIFDNIGINNQSWKLKYNDNKNAYQIHILDNFLYFQGGHNIVATMRNVTNDDLRSYWYVEYNFNKDGFIIRNAFDTSYVLDVFQGNFANNTPIITYQNYLNDNQLWNFIPSLGVEPR,soluble
11,ATLDVRGGYRSGSHAYETRLKVSEGWQNGWWASMESNTWNTIHDNKKENAALNDVQVEVNYAIKLDDQWTVRPGMLTHFSSNGTRYGPYVKLSWDATKDLNFGIRYRYDWKAYRQQDLSGDMSRDNVHRWDGYVTYHINSDFTFAWQTTLYSKQNDYRYANHKKWATENAFVLQYHMTPDITPYIEYDYLDRQGVYNGRDNLSENSYRIGVSFKL,soluble
12,AVANILNRDYNRAQEILNGIKNPDATTYYLMAVVAARTNNLDVVINSLRESISLDSSMMKKAATDLEFAKYANDGGFKSLLRH,not soluble
13,AVFRHTLLHFFERLQSNDIYYKFHNILFLKCEHTEQNAAVIAIARKHQAIWREKITAVLTEAVENQDLADDLDKETAVIFIKSTLDGLIWRWFSSCERFDLGKTAPRIIGIMMDNLENHPDLRRK,not soluble
14,AVVATKVGATVMNANPFTLGHRYLIEQALAQCDHLHLFVVEEEASQFCYQERFALVQHGIADLSNITLHPSSQYIISRATFPDYFLKDSHIVDAAYLELDLRLFRQHIAPALAITHRFIGTEPFCPVTAEYNRKMHYWLQQAVMEADAINVVEIERKKVSNQAISASTVRQLFSERKWQQLLSMVPITTFNFLQKIANEP,not soluble
15,AYSELQMLSPSERQCVETVVNMGYSYECVLRAMKKKGENIEQILDYLFAH,soluble
16,CLAEGTRIFDPVTGTTHRIEDVVYGRKPIHVVAAAKDGTLHARPVVSWFDQGTRDVIGLRIAGGAIVWATPDHKVLTEYGWRAAGELRKGDRVAVRDVETGELRYSVIREVLPTRRARTFDLEVEELHTLVAEGVVVHN,soluble
17,CPVNWVEHERSCYWFSRSGKAWADADNYCRLEDAHLVVVTSWEEQKFVQHHIGPVNTWMGLHDQNGPWKWVDGTDYETGFKNWRPEQPDDWYGHGLGGGEDCAHFTDDGRWNDDVCQRPYRWVCETEL,soluble
18,DALHDQASALFKPIPEQVTELRGQPISEQQRELGKKLFFDPRLSRSHVLSCNTCHNVGTGGADNVPTSVGHGWQKGPRNSPTVFNAVFNAAQFWDGRAKDLGEQAKGPIQNSVEMHSTPQLVEQTLGSIPEYVDAFRKAFPKAGKPVSFDNMALAIEAYEATLVTPDSPFDLYLKGDDKALDAQQKKGLKAFMDSGCSACHNGINLGGQAYFPFGLVKKPDASVLPSGDKGRFAVTKTQSDEYVFRAAPLRNVALTAPYFHSGQVWELKDAVAIMGNAQLGKQLAPDDVENIVAFLHSLSGKQPRVEYPLLPASTETTPRPAE,soluble
19,DDDDEEEDDFVYFNFNKEKEEKNKNSIHPNDFQIYNSLKYKYHPEYQYLNIIYDIMMNGNKQSDRTGVGVLSKFGYIMKFDLSQYFPLLTTKKLFLRGIIEELLWFIRGETNGNTLLNKNVRIWEANGTREFLDNRKLFHREVNDLGPIYGFQWRHFGAEYTNMYDNYENKGVDQLKNIINLIKNDPTSRRILLCAWNVKDLDQMALPPCHILCQFYVFDGKLSCIMYQRSCDLGLGVPFNIASYSIFTHMIAQVCNLQPAQFIHVLGNAHVYNNHIDSLKIQLNRIPYPFPTLKLNPDIKNIEDFTISDFTIQNYVHHEKISMDMAA,soluble
20,DDDGEHGGRRAALVVTDPLTRTECSACHMAYPAALLPARSWTALMADLPNHFGEDASLDEASRGQIESYLVANAADSSGAGRALRGLVQTDTPLRISELPWFKRKHADEVSPRMLEKARSMSNCAACHTGAERGLFDDD,soluble
21,DDFVSLGTSGWHARVVSTVSDPSEVRQFALPDGGILRIASVLSVGGTADWARSVLLPGVSAKEADALMLQRPRLATGLLSLPSIQGESFPVRSHSVGGCILGMRGNQDPLTLYTAVIEGICMTLAHDIKPGGILPATGGGARSVPWMRILASVTNRNIHVTVSEDAALHGAASLAAYATSAEYLPTLAARAIVEIEPEPEVVASFEPLIAKHLELFRFAAALSY,not soluble
22,DDIKVAVVGAMSGPIAQWGDMEFNGARQAIKDINAKGGIKGDKLVGVEYDDACDPKQAVAVANKIVNDGIKYVIGHLCSSSTQPASDIYEDEGILMISPGATNPELTQRGYQHIMRTAGLDSSQGPTAAKYILETVKPQRIAIIHDKQQYGEGLARSVQDGLKAANANVVFFDGITAGEKDFSALIARLKKENIDFVYYGGYYPEMGQMLRQARSVGLKTQFMGPEGVGNASLSNIAGDAAEGMLVTMPKRYDQDPANQGIVDALKADKKDPSGPYVWITYAAVQSLATALERTGSDEPLALVKDLKANGANTVIGPLNWDEKGDLKGFDFGVFQWHADGSSTKAK,soluble
23,DEFQWKGLPVVKSGLDVGGMPTGTRYHRSPAWPEEQPGETHAPAPFGSGDKRYTFSQTEMLVNGLKPYTEPTAGVPPQLLSRAVTHVRSYIETIIGTHRSPVLTYHQACELLERTTSCGPFVQGLKGDYWDEEQQQYTGVLANHLEQAWDKANKGIAPRNAYKLALKDELRPIEKNKAGKRRLLWGCDAATTLIATAAFKAVATRLQVVTPMTPVAVGINMDSVQMQVMNDSLKGGVLYCLDYSKWDSTQNPAVTAASLAILERFAEPHPIVSCAIEALSSPAEGYVNDIKFVTRGGLPSGMPFTSVVNSINHMIYVAAAILQAYESHNVPYTGNVFQVETIHTYGDDCMYSVCPATASIFHTVLANLTSYGLKPTAADKSDAIKPTNTPVFLKRTFTQTPHGIRALLDITSITRQFYWLKANRTSDPSSPPAFDRQARSAQLENALAYASQHGPVMFDTVRQIAIKTAQGEGLVLVNTNYDQALATYNAWFIGGTVPDPVGHTEGTHKIVFEME,soluble
24,DERGEVVDGDKLIGALAMHLKNSHTLEKPLAVATVMSNLALEEFLAKAKIKLLRAGVGDKYVLEMMQKEGANFGGEQSGHLIFSDFAKTGDGLVSALQTMAFVLRSGERASRALNIFDLY,not soluble
